Results from the supplement of paper PMC10567573.

B1: KRT33B (parent)
chain: YQSYFKTIEELQQKILCSKSENAR

Variants of: B1
Assay: protein stability index of a GFP-peptide fusion (GPS, HEK-293T) (PSI 1-6); higher = more stable
Conditions: c terminus: a fixed tail appended
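Further: lentivirally expressed fusions sorted by FACS into six bins by GFP to DsRed ratio, PSI derived from sequencing read proportions per bin multiplied by bin number.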

Variant	protein stability index
SQSYFKTIEELQQKILCSKSENAR	3.62
VQSYFKTIEELQQKILCSKSENAR	2.68
TQSYFKTIEELQQKILCSKSENAR	3.28
IQSYFKTIEELQQKILCSKSENAR	2.2
PQSYFKTIEELQQKILCSKSENAR	3.84
CQSYFKTIEELQQKILCSKSENAR	2.69
NQSYFKTIEELQQKILCSKSENAR	3.72
QQSYFKTIEELQQKILCSKSENAR	3.32
GQSYFKTIEELQQKILCSKSENAR	3.08
RQSYFKTIEELQQKILCSKSENAR	3.15
YQSYFKTIEELQLKILCSKSENAR	2.2
YQSYFKTIEELQPKILCSKSENAR	1.83
YQSYFKTIEELQEKILCSKSENAR	1.81
YQSYFKTIEELQDKILCSKSENAR	1.55
YQSYFKTIEELQVKILCSKSENAR	1.78
YQSYFKTIEELQWKILCSKSENAR	2.6
YQSYFKTIEELQYKILCSKSENAR	1.65
YQSYFKTIEELQQKILCIKSENAR	2.42
YQSYFKTIEELQQKILCFKSENAR	1.68
YQSYFKTIEELQQKILCEKSENAR	2.12
YQSYFKTIEELQQKILCPKSENAR	1.79
YQSYFKTIEELQQKILCWKSENAR	1.97
YQSYFKTIEELQQKILCMKSENAR	2.18
YQSYFKTIEELQQKILCRKSENAR	2.18

Variant	protein stability index
YQSYFKTIEELQQKILCHKSENAR	1.84
YQSYFKTIEELDQKILCSKSENAR	2.07
YQSYFKTIEELNQKILCSKSENAR	1.89
YQSYFKTIEELEQKILCSKSENAR	2.6
YQSYFKTIEELAQKILCSKSENAR	2.78
YQSYFKTIEELHQKILCSKSENAR	1.78
YQSYFKTIEELPQKILCSKSENAR	1.8
YQSYFKTIEELKQKILCSKSENAR	2.06
YQSYFKTIEELQQKILCSKSDNAR	1.77
YQSYFKTIEELQQKILCSKSLNAR	1.7
YQSYFKTIEELQQKILCSKSRNAR	1.77
YQSYFKTIEELQQKILCSKSTNAR	1.77
YQSYFKTIEELQQKILCSKSINAR	1.6
YQSYFKTIPELQQKILCSKSENAR	1.66
YQSYFKTIGELQQKILCSKSENAR	1.86
YQSYFKTIIELQQKILCSKSENAR	1.9
YQSYFKTIEELQQKILCSKSENAH	1.71
YQSYFKTIEELQQKILCSKSENAV	1.98
YQSYFKTIEELQQKILCSKSENAW	1.15
YQSYFKTIEELQQKILCSKSENAS	2.07
YQSYFKTIEELQQKILCSKSENAC	2.4
YQSYFKTIEELQQKILCSKSENAN	2.02
YQSYFKTIEELQQKILCSKSENAG	2.55
YQSYFKTIEELQQKILCSKSENAA	1.94

Variant	protein stability index
YQSYFKTIEELQQKILCSKSENAP	2.13
YQSYFKTIEELQQKILCSKSENAF	1.47
YQSRFKTIEELQQKILCSKSENAR	2.25
YQSEFKTIEELQQKILCSKSENAR	1.88
YQSTFKTIEELQQKILCSKSENAR	1.74
YQSAFKTIEELQQKILCSKSENAR	2.1
YQSIFKTIEELQQKILCSKSENAR	1.96
YQSDFKTIEELQQKILCSKSENAR	2.34
YQSPFKTIEELQQKILCSKSENAR	1.73
YQSYFKTIEELQQKILRSKSENAR	2.14
YQSYFKTIEELQQKILSSKSENAR	1.7
YQSYFKTIEELQQKILFSKSENAR	1.39
YQSYFKTIEELQQKILYSKSENAR	1.61
YQSYFKTIEELQQKILTSKSENAR	2.19
YQSYFKTIEELQQKILNSKSENAR	1.95
YQSYFKTIEELQQKILMSKSENAR	2.54
YQSYFKTIEELQQKILPSKSENAR	1.77
YQSYFKTIEELQQKILHSKSENAR	2.31
YQSYFKTIEELQQKILWSKSENAR	1.53
YQSYFKTIEVLQQKILCSKSENAR	2.28
YQSYFKTIESLQQKILCSKSENAR	1.65
YQSYFKTIEPLQQKILCSKSENAR	2.39
YQSYFKTIENLQQKILCSKSENAR	2.1
YQSYFKTIEMLQQKILCSKSENAR	1.67

Variant	protein stability index
YQSYFKTIERLQQKILCSKSENAR	1.89
YQSYFKTIEALQQKILCSKSENAR	2.02
YQSYFKTIEHLQQKILCSKSENAR	1.65
YQSYFKTIEGLQQKILCSKSENAR	2.6
YQSYFKTHEELQQKILCSKSENAR	2.42
YQSYFKTAEELQQKILCSKSENAR	2.44
YQSYFKTDEELQQKILCSKSENAR	2.07
YQSYFKTTEELQQKILCSKSENAR	1.63
YQSYFKTEEELQQKILCSKSENAR	3
YQSYFKTMEELQQKILCSKSENAR	1.79
YQSYFKTYEELQQKILCSKSENAR	1.93
YQSYFKTFEELQQKILCSKSENAR	2.01
YQSYFKTQEELQQKILCSKSENAR	2.06
YQSYFKTNEELQQKILCSKSENAR	2.19
YQSYFYTIEELQQKILCSKSENAR	2.55
YQSYFRTIEELQQKILCSKSENAR	1.11
YQSYFATIEELQQKILCSKSENAR	1.43
YQSYFMTIEELQQKILCSKSENAR	1.8
YQSYFPTIEELQQKILCSKSENAR	2.74
YQSYFQTIEELQQKILCSKSENAR	1.64
YQSYFITIEELQQKILCSKSENAR	2.52
YQSYFKTIEELQQKILCSKSENNR	2.24
YQSYFKTIEELQQKILCSKSENFR	1.47
YQSYFKTIEELQQKILCSKSENER	2.77

Variant	protein stability index
YQSYFKTIEELQQKILCSKSENSR	2.21
YQSYFKTIEELQQKILCSKSENDR	1.62
YQSYFKTIEELQQKILCSKSENMR	2.11
YQSYFKTIEELQQKILCSKSENCR	1.86
YQSYWKTIEELQQKILCSKSENAR	2.44
YQSYKKTIEELQQKILCSKSENAR	2.38
YQSYRKTIEELQQKILCSKSENAR	2.53
YQSYHKTIEELQQKILCSKSENAR	1.84
YQSYAKTIEELQQKILCSKSENAR	2.37
YQSYCKTIEELQQKILCSKSENAR	2.16
YQSYNKTIEELQQKILCSKSENAR	2.91
YQSYVKTIEELQQKILCSKSENAR	2.26
YQSYSKTIEELQQKILCSKSENAR	2.81
YQSYTKTIEELQQKILCSKSENAR	2.59
YQSYFKTIEELQQKNLCSKSENAR	1.85
YQSYFKTIEELQQKRLCSKSENAR	1.93
YQSYFKTIEELQQKHLCSKSENAR	2.52
YQSYFKTIEELQQKMLCSKSENAR	2.07
YQSYFKTIEELQQKSLCSKSENAR	1.93
YQSYFKTIEELQQKVLCSKSENAR	1.7
YQSYFKTIEELQQKPLCSKSENAR	2.3
YQSYFKTIEELQQKLLCSKSENAR	1.67
YQSYFKTIEELQQKKLCSKSENAR	1.64
YQSYFKTIEELQQKILCSKSEDAR	1.82

Variant	protein stability index
YQSYFKTIEELQQKILCSKSEFAR	1.67
YQSYFKTIEELQQKILCSKSELAR	1.86
YQSYFKTIEELQQKILCSKSEIAR	1.71
YQSYFKTIEELQQKILCSKSECAR	2.3
YQSYFKTIEELQQKILCSKSEKAR	1.8
YQSYFKTIEELQQKILCSKSETAR	1.39
YQSYFKTIEELQQKIYCSKSENAR	1.41
YQSYFKTIEELQQKISCSKSENAR	2
YQSYFKTIEELQQKIACSKSENAR	2.13
YQSYFKTIEELQQKIECSKSENAR	1.73
YQSYFKTIEELQQKINCSKSENAR	1.84
YQSYFKTIEELQQKIICSKSENAR	2.14
YQSYFKTIEELQQKICCSKSENAR	2.52
YQSYFKTIEELQQKIQCSKSENAR	1.88
YQSYFKCIEELQQKILCSKSENAR	2.1
YQSYFKYIEELQQKILCSKSENAR	2.08
YQSYFKNIEELQQKILCSKSENAR	2.23
YQSYFKEIEELQQKILCSKSENAR	2.31
YQSYFKDIEELQQKILCSKSENAR	2.42
YQSYFKMIEELQQKILCSKSENAR	2.12
YQSYFKRIEELQQKILCSKSENAR	1.88
YQSYFKTIEELQQKILCSQSENAR	2.08
YQSYFKTIEELQQKILCSSSENAR	1.78
YQSYFKTIEELQQKILCSRSENAR	2.06

Variant	protein stability index
YQSYFKTIEELQQKILCSLSENAR	1.54
YQSYFKTIEELQQKILCSDSENAR	1.72
YQSYFKTIEELQQKILCSTSENAR	2.3
YGSYFKTIEELQQKILCSKSENAR	2.14
YFSYFKTIEELQQKILCSKSENAR	2.5
YPSYFKTIEELQQKILCSKSENAR	2.77
YASYFKTIEELQQKILCSKSENAR	2.54
YDSYFKTIEELQQKILCSKSENAR	2.98
YHSYFKTIEELQQKILCSKSENAR	2.01
YNSYFKTIEELQQKILCSKSENAR	2.16
YVSYFKTIEELQQKILCSKSENAR	2.2
YLSYFKTIEELQQKILCSKSENAR	2.46
YQSYFKTIEEGQQKILCSKSENAR	2.02
YQSYFKTIEEYQQKILCSKSENAR	1.8
YQSYFKTIEEQQQKILCSKSENAR	1.71
YQSYFKTIEEEQQKILCSKSENAR	2.01
YQSYFKTIEEKQQKILCSKSENAR	1.42
YQSYFKTIEELQQPILCSKSENAR	1.45
YQSYFKTIEELQQGILCSKSENAR	1.25
YQSYFKTIEELQQMILCSKSENAR	2.28
YQSYFKTIEELQQRILCSKSENAR	2.57
YQSYFKTIEELQQYILCSKSENAR	1.61
YQSYFKTIEELQQIILCSKSENAR	1.66
YQSYFKTIEELQQFILCSKSENAR	2.02

Variant	protein stability index
YQSYFKTIEELQQNILCSKSENAR	1.7
YQSYFKTIEELQQKILCSKNENAR	2.13
YQSYFKTIEELQQKILCSKTENAR	1.87
YQSYFKTIEELQQKILCSKKENAR	2.05
YQSYFKTIEELQQKILCSKIENAR	1.92
YQSYFKTIEELQQKILCSKVENAR	2.04
YQSYFKTIEELQQKILCSKCENAR	1.95
YQSYFKTIEELQQKILCSKMENAR	1.63
YQSYFKTIEELQQKILCSKDENAR	2.32
YQSYFKTIEELQQKILCSKGENAR	1.38
YQSYFKTIEELQQKILCSKWENAR	1.56
YQVYFKTIEELQQKILCSKSENAR	1.6
YQPYFKTIEELQQKILCSKSENAR	2.41
YQCYFKTIEELQQKILCSKSENAR	2.11
YQEYFKTIEELQQKILCSKSENAR	2.42
YQDYFKTIEELQQKILCSKSENAR	2.18
YQQYFKTIEELQQKILCSKSENAR	2.38
YQHYFKTIEELQQKILCSKSENAR	1.59
YQNYFKTIEELQQKILCSKSENAR	1.79
YQWYFKTIEELQQKILCSKSENAR	1.79
